# Residue numbers refer to the chain shown, from its start. Names and notes keep the numbering of the source. Values joined by “and” are separate entries in the source; they are usually repeats but may differ in a detail not shown here. Identical values can stand only once. Like-named read-outs stand apart in the source and are kept apart here.
# B1: eSrtA (protein)
# chain: QAKPQIPKDKSKVAGYIEIPDADIKEPVYPGPATREQLNRGVSFAEENESLDDQNISIAGHTFIDRPNYQFTNLKAAKKGSMVYFKVGNETRKYKMTSIRNVKPTAVEVLDEQKGKDKQLTLITCDDYNEETGVWETRKIFVATEVK
# B2: eSrtA(4S-9): P94R, N98D, S102C, A104V, A118T, F122A, K134R, F144L, D160N, D165A, I182V, E189F, K190E, K196T (protein)
# chain: B1 chain with N39D, S43C, A45V, A59T, F63A, K75R, F85L, I123V, E130F
# How the values were obtained:
# Assay type in all cases: biochemical
# [1] = system: LPESG (Abz-LPESGK(Dnp)-CONH2); test: In vitro sortase kinetics HPLC assay, LPESG substrate; settings: for KN: eight GGG concentrations; for Rel. Activity: kcat/Km of the enzyme's preferred substrate relative to kcat/Km on this substrate
# How it was run: (§1)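 Abz-LXEXGK(Dnp) peptides in 300 mM Tris pH 7.5, 150 mM NaCl, 5 mM CaCl2, 5% DMSO, GGG; 22.5° C., acid-quenched, converted fraction by reverse-phase HPLC peak areas. kcat and Km from eight substrate concentrations fit to Michaelis-Menten; KH at 1 mM substrate over eight GGG levels.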
# [2] = system: LAETG (Abz-LAETGK(Dnp)-CONH2); test: In vitro sortase kinetics HPLC assay, LAETG substrate; settings: for Rel. Activity: kcat/Km of the enzyme's preferred substrate relative to kcat/Km on this substrate
# Experimental: (§2) See below for details on sortase expression and purification, and on the synthesis of Abz-LPETGK(Dnp)-CONH2 (SEQ ID NO: 19). […] Reactions were initiated with the addition of enzyme and incubated at 22.5° C. for 3 to 20 minutes before quenching with 0.5 volumes of 1 M HCl. Five to ten nmol of peptide from the quenched reactions were injected onto an analytical reverse-phase Eclipse XDB-C18 HPLC column (4.6×150 mm, 5 μm, Agilent Technologies) and chromatographed using a gradient of 10 to 65% acetonitrile with 0.1% TFA in 0.1% aqueous TFA over 13 minutes. Retention times under these conditions for the Abz-LPETGK(Dnp)-CONH2 (SEQ ID NO: 19) substrate, the released GKDnp peptide, and the Abz-LPETGGG-COOH (SEQ ID NO: 20) product were 12.8, 10.4, and 9.1 min, respectively. To calculate the percent conversion, the ratio of the integrated areas of the Abz-LPETGGG-COOH (SEQ ID NO: 20) and Abz-LPETGK(Dnp)-CONH2 (SEQ ID NO: 19) peptide Abs220 peaks was compared to a standard curve generated by mixing the product and starting peptide in known ratios. To determine […] and Km, reaction rates were fit to the Michaelis-Menten equation using OriginPro 7.0 software. All kinetics values reported represent the average of at least three measurements. Percent conversion was also calculated by using the ratio of the integrated areas of the GK(Dnp)-CONH2 and Abz-LPETGK(Dnp)-CONH2 peptide Abs355 peaks were compared directly (Example 5). To determine kcat and Km, LPETG, reaction rates were fit to the Michaelis-Menten equation using Microsoft Excel using the Solver add-in. To determine Km,GGG and KH, reaction rates were fit to the modified Michaelis-Menten, for which KH is as defined when KH<<Km,GGG.
# (§3) Assays to determine eSrtA, eSrtA(2A-9) and eSrtA(4S-9) specificity were performed by preparing 10 μM stocks of Abz-LXEXGK(Dnp) (SEQ ID NO: 75) peptides in 300 mM Tris pH 7.5, 150 mM NaCl, 5 mM CaCl2, 5% v/v DMSO, and 100 mM Gly-Gly-Gly-COOH (GGG). Reactions were performed by adding eSrtA(2A-9) to a final concentration of 450 nM, eSrtA(4S-9) to a final concentration of 115 nM or eSrtA to a final concentration of 47.5 nM and a final volume of 100 μL, then incubating at 22.5° C. for 15 minutes. Reactions were quenched by the addition of 0.2 volumes of 5 M HCl, then were injected onto an analytical reverse-phase Eclipse XDB-C18 HPLC column (4.6×150 mm, 5 μm, Agilent Technologies) and chromatographed using a gradient of 10 to 65% acetonitrile with 0.1% TFA in 0.1% aqueous TFA over 13 minutes. Retention times under these conditions for the Abz-LPETGK(Dnp)-CONH2 (SEQ ID NO: 19) substrate, the released GKDnp peptide, and the Abz-LPETGGG-COOH (SEQ ID NO: 20) product were 12.8, 10.4, and 9.1 min, respectively, while the remaining Abz-LXEXGK(Dnp)-CONH2 (SEQ ID NO: 74) substrates varied in retention time between 9 and 13 minutes. To calculate the percent conversion, the ratio of the integrated areas of the GK(Dnp)-CONH2 and Abz-LPETGK(Dnp)-CONH2 (SEQ ID NO: 19) peptide Abs355 peaks were compared directly. Subsequent determination of kcat/Km and KH were performed as described for in vitro SrtA characterization.
# In each case, rate constants were determined by measuring enzyme velocity at eight different substrate concentrations by HPLC assay, then fit using nonlinear regression to the Michaelis-Menten equation, yielding kcat and Km. KH was calculated by measuring enzyme velocity at 1 mM target substrate and eight different GGG concentrations by HPLC assay, then fitting the resulting curves using nonlinear regression to the modified Michaelis-Menten equation.
# [3] = system: LPETG (Abz-LPETGK(Dnp)-CONH2); test: In vitro sortase kinetics HPLC assay, LPETG substrate; settings: for KN: eight GGG concentrations; for KH,LPETG: LPETG substrate; for Rel. Activity: kcat/Km of the enzyme's preferred substrate relative to kcat/Km on this substrate
# How it was run: as §1
# LSETG = test: In vitro sortase kinetics HPLC assay, LSETG substrate
# Experimental: as §2, §3
# The original pentamutant comprising the mutations P94R, D160N, D165A, K190E, and K196T is referred to as eSrtA. Sortase variants herein were evolved using eSrtA as the parent enzyme in the evolution experiments. In some cases, an evolved sortase comprises a N160K mutation instead of a D160N or a T196S mutation instead of a K196T. Parameters are reported with their standard deviations as determined from three technical replicates. kcat, Km and kcat/Km parameters were determined at 100 mM GGG concentration, while Km,GGG and KH parameters were determined at 1 mM concentration of the listed substrate.
# [4] = Sub LPESG, 100 mM GGG, read-out: Km
# [5] = Table 2, Sub LPESG, read-out: Km
# [6] = Sub LAETG, 100 mM GGG, read-out: Km
# [7] = Table 2, Sub LAETG, read-out: Km
# [8] = Sub LPETG, 100 mM GGG, read-out: Km
# [9] = Table 2, Sub LPETG, read-out: Km
# [10] = GGG varied, substrate 4S (LPESG)
# [11] = GGG varied, substrate wt (LPETG)
molecule,measurement,setting,value
B1,KH,[1]; 1 mM LPESG,76 ± 19 µM
same,KN,[1]; 1 mM LPESG,76 ± 19 µM
same,Km,"[1]; 1 mM LPESG, read-out: Km,GGG",22000 ± 900 µM
same,Kcat (Hz),"[1]; Sub LPESG, 100 mM GGG",1.46 ± 0.13 Hz
same,Km,[1]; [4],318 ± 58 µM
same,Rel. Activity,[1]; Sub LPESG,4.9
same,Kcat (Hz),"[1]; Table 2, Sub LPESG",1.46 ± 0.13 Hz
same,Km,[1]; [5],318 ± 58 µM
same,"kcat, 10 mM GGG (Hz)","[1]; substrate 4S (LPESG), 10 mM GGG",1.74 Hz
same,Km,"[1]; substrate 4S (LPESG), read-out: Km, LxExG",672 µM
same,KH,[2]; 1 mM LAETG,26.5 ± 0.6 µM
same,KN,"[2]; 1 mM LAETG, eight GGG concentrations",26.5 ± 0.6 µM
same,Km,"[2]; 1 mM LAETG, read-out: Km,GGG",807 ± 56 µM
same,Kcat (Hz),"[2]; Sub LAETG, 100 mM GGG",1.31 ± 0.26 Hz
same,Km,[2]; [6],6070 ± 870 µM
same,Rel. Activity,[2]; Sub LAETG,103.3
same,Kcat (Hz),"[2]; Table 2, Sub LAETG",1.31 ± 0.26 Hz
same,Km,[2]; [7],6070 ± 870 µM
same,preference for LPETG over LAETG,[2]; ratio of kcat/KM,103 fold
same,"specificity (relative cat. Efficiency, fold)","[2]; ratio of kcat/Km between 2A (LAETG) and wt (LPETG) substrates, favoured over disfavoured",122.6 fold
same,"kcat, 10 mM GGG (Hz)","[2]; substrate 2A (LAETG), 10 mM GGG",1.316 Hz
same,Km,"[2]; substrate 2A (LAETG), read-out: Km, LxExG",6160 µM
same,KH,[3]; 1 mM LPETG,32.8 ± 2.4 µM
same,KN,[3]; 1 mM LPETG,32.8 ± 2.4 µM
same,Km,"[3]; 1 mM LPETG, read-out: Km,GGG",1617 ± 13 µM
same,Khydrolysis,[3]; 1 mM wt (LPETG) substrate,22.59 µM
same,"kcat, 1 mM LxExG (Hz)","[3]; 1 mM wt (LPETG) substrate, GGG varied",7.245 Hz
same,Km,"[3]; 1 mM wt (LPETG) substrate, read-out: Km, GGG",2990 µM
same,"KH,LPETG",[3],32.8 ± 2.4 µM
same,Kcat (Hz),"[3]; Sub LPETG, 100 mM GGG",5.4 ± 0.4 Hz
same,Km,[3]; [8],230 ± 20 µM
same,Rel. Activity,[3]; Sub LPETG,1
same,Kcat (Hz),"[3]; Table 2, Sub LPETG",5.4 ± 0.4 Hz
same,Km,[3]; [9],230 ± 20 µM
same,kL/KL/KH,[3]; substrate wt (LPETG),1.20E+09
same,kHydrolysis (Hz),"[3]; substrate wt (LPETG), 1 mM, GGG varied",0.05546 Hz
same,"kcat, 10 mM GGG (Hz)","[3]; substrate wt (LPETG), 10 mM GGG",5.622 Hz
same,Km,"[3]; substrate wt (LPETG), read-out: Km, LxExG",208 µM
same,KH,LSETG; 1 mM LSETG,37.4 ± 3.4 µM
same,Km,"LSETG; 1 mM LSETG, read-out: Km,GGG",337 ± 16 µM
same,Kcat (Hz),"LSETG; Sub LSETG, 100 mM GGG",0.102 ± 0.001 Hz
same,Km,"LSETG; Sub LSETG, 100 mM GGG, read-out: Km",533 ± 24 µM
B2,KH,[1]; 1 mM LPESG,174 ± 32 µM
same,KN,[1]; 1 mM LPESG,174 ± 32 µM
same,Km,"[1]; 1 mM LPESG, read-out: Km,GGG",69000 ± 12000 µM
same,Avg kcat (Hz),"[1]; Example 5 variants, substrate 4S (LPESG)",2.146 Hz
same,Km,"[1]; Example 5 variants, substrate 4S (LPESG), read-out: Avg KM",123 µM
same,Avg kHydro (Hz),[1]; [10],0.008016 Hz
same,Avg kcat (Hz),[1]; [10],3.178 Hz
same,Km,"[1]; KM for GGG, substrate 4S (LPESG), read-out: Avg KM",69500 µM
same,"KH (KH,LPESG)",[1]; LPESG substrate,174 ± 32 µM
same,Kcat (Hz),"[1]; Sub LPESG, 100 mM GGG",2.05 ± 0.15 Hz
same,Km,[1]; [4],113 ± 12 µM
same,Rel. Activity,[1]; Sub LPESG,1
same,Kcat (Hz),"[1]; Table 2, Sub LPESG",2.05 ± 0.15 Hz
same,Km,[1]; [5],113 ± 12 µM
same,change in specificity for LPESG versus LPETG relative to eSrtA,"[1]; ratio of (kcat/KM)target to (kcat/KM)LPETG, relative to eSrtA",120 fold and 125 fold
same,preference for LPESG over LPETG,[1]; ratio of kcat/KM,25 fold
same,Specificity,"[1]; ratio of kcat/KM, 4S (LPESG) over wt (LPETG)",24.953
same,Avg KH,[1]; substrate 4S (LPESG),173.5925 µM
same,activity on LAETG,[2],negligible activity
same,Kcat (Hz),"[2]; Sub LAETG, 100 mM GGG",0.0078 ± 0.0006 Hz
same,Km,[2]; [6],387 ± 49 µM
same,Rel. Activity,[2]; Sub LAETG,898
same,Kcat (Hz),"[2]; Table 2, Sub LAETG",0.0078 ± 0.0006 Hz
same,Km,[2]; [7],387 ± 49 µM
same,KH,[3]; 1 mM LPETG,295 ± 19 µM
same,KN,[3]; 1 mM LPETG,295 ± 19 µM
same,Km,"[3]; 1 mM LPETG, read-out: Km,GGG",98000 ± 13000 µM
same,Avg kcat (Hz),"[3]; Example 5 variants, substrate wt (LPETG)",0.0468 Hz
same,Km,"[3]; Example 5 variants, substrate wt (LPETG), read-out: Avg KM",66.1 µM
same,Avg kHydro (Hz),[3]; [11],0.000173 Hz
same,Avg kcat (Hz),[3]; [11],0.05704 Hz
same,Km,"[3]; KM for GGG, substrate wt (LPETG), read-out: Avg KM",97600 µM
same,"KH,LPETG",[3],295 ± 18 µM
same,Kcat (Hz),"[3]; Sub LPETG, 100 mM GGG",0.047 ± 0.006 Hz
same,Km,[3]; [8],64.7 ± 4.2 µM
same,Rel. Activity,[3]; Sub LPETG,25
same,Kcat (Hz),"[3]; Table 2, Sub LPETG",0.047 ± 0.006 Hz
same,Km,[3]; [9],64.7 ± 4.2 µM
same,activity on LPETG,[3]; round 9 clones,minimally active on LPETG
same,Avg KH,[3]; substrate wt (LPETG),294.8601 µM
